# Measured values as given in patent US20240368565A1, “COMPLEMENTATION-BASED TAGS AND REPORTERS FOR DUAL-MODALITY LABELING” (Promega Corporation, priority 2023, published 2024).
# B1: D53G+V177E: reporter variant of FIG. 50 (protein)
# chain: MFHYVDVGPRDGTPVLFLHGNPTSSYVWRNIIPHVAPTHRCIAPDLIGMGKSGKPDLGYFFDDHVRFMDAFIEALGLEEVVLVIHDWGSALGFHWAKRNPERVKGIAFMEFIRPIPTWDEWPEFARETFQAFRTTDVGRKLIIDQNVFIEGTLPMGVVRPLTEVEMDHYREPFLNPEDREPLWRFPNELPIAGEPANIVALVEEYMDWLHQSPVPKLLFWGTPGVLIPPAEAARLAKSLPNCKAVDIGPGLNLLQEDNPDLIGSEIARWLSTLEISGGSGGSGGGGSGGMVFTLEDFVGDWEQTAAYNLDQVLEQGGVSSLLQNLAVSVTPIQRIVRSGENALKIDIHVIIPYEGLSADQMAQIEEVFKVVYPVDDHHFKVILPYGTLVIDGVTPNMLNYFGRPYEGIAVFDGKKITVTGTLWNGNKIIDERLITPDGSMLFRVTINS
# B2: M49F+L57I: reporter variant of FIG. 52 (protein)
# chain: MFHYVDVGPRDGTPVLFLHGNPTSSYVWRNIIPHVAPTHRCIAPDLIGFGKSDKPDIGYFFDDHVRFMDAFIEALGLEEVVLVIHDWGSALGFHWAKRNPERVKGIAFMEFIRPIPTWDEWPEFARETFQAFRTTDVGRKLIIDQNVFIEGTLPMGVVRPLTEVEMDHYREPFLNPVDREPLWRFPNELPIAGEPANIVALVEEYMDWLHQSPVPKLLFWGTPGVLIPPAEAARLAKSLPNCKAVDIGPGLNLLQEDNPDLIGSEIARWLSTLEISGGSGGSGGGGSGGMVFTLEDFVGDWEQTAAYNLDQVLEQGGVSSLLQNLAVSVTPIQRIVRSGENALKIDIHVIIPYEGLSADQMAQIEEVFKVVYPVDDHHFKVILPYGTLVIDGVTPNMLNYFGRPYEGIAVFDGKKITVTGTLWNGNKIIDERLITPDGSMLFRVTINS
# B3: M2F+D53S+V177E: more highly stabilized purified reporter variant of FIG. 60 (protein)
# chain: MFHYVDVGPRDGTPVLFLHGNPTSSYVWRNIIPHVAPTHRCIAPDLIGMGKSSKPDLGYFFDDHVRFMDAFIEALGLEEVVLVIHDWGSALGFHWAKRNPERVKGIAFMEFIRPIPTWDEWPEFARETFQAFRTTDVGRKLIIDQNVFIEGTLPMGVVRPLTEVEMDHYREPFLNPEDREPLWRFPNELPIAGEPANIVALVEEYMDWLHQSPVPKLLFWGTPGVLIPPAEAARLAKSLPNCKAVDIGPGLNLLQEDNPDLIGSEIARWLSTLEISGGSGGSGGGGSGGMVFTLEDFVGDWEQTAAYNLDQVLEQGGVSSLLQNLAVSVTPIQRIVRSGENALKIDIHVIIPYEGLSADQMAQIEEVFKVVYPVDDHHFKVILPYGTLVIDGVTPNMLNYFGRPYEGIAVFDGKKITVTGTLWNGNKIIDERLITPDGSMLFRVTINS
# B4: M49F+S89A: reporter variant of FIG. 51 (protein)
# chain: MFHYVDVGPRDGTPVLFLHGNPTSSYVWRNIIPHVAPTHRCIAPDLIGFGKSDKPDLGYFFDDHVRFMDAFIEALGLEEVVLVIHDWGAALGFHWAKRNPERVKGIAFMEFIRPIPTWDEWPEFARETFQAFRTTDVGRKLIIDQNVFIEGTLPMGVVRPLTEVEMDHYREPFLNPVDREPLWRFPNELPIAGEPANIVALVEEYMDWLHQSPVPKLLFWGTPGVLIPPAEAARLAKSLPNCKAVDIGPGLNLLQEDNPDLIGSEIARWLSTLEISGGSGGSGGGGSGGMVFTLEDFVGDWEQTAAYNLDQVLEQGGVSSLLQNLAVSVTPIQRIVRSGENALKIDIHVIIPYEGLSADQMAQIEEVFKVVYPVDDHHFKVILPYGTLVIDGVTPNMLNYFGRPYEGIAVFDGKKITVTGTLWNGNKIIDERLITPDGSMLFRVTINS
# B5: LgBiT: polypeptide component of a bioluminescent complex (β1-9-like polypeptide) (protein)
# chain: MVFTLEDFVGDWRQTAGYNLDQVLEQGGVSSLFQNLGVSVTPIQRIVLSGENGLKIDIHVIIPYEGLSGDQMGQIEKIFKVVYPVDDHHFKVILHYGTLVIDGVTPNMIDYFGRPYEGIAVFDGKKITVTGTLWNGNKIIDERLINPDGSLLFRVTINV
# B6: M2F+D53G+V177E: reporter variant of FIG. 53 (protein)
# chain: MFHYVDVGPRDGTPVLFLHGNPTSSYVWRNIIPHVAPTHRCIAPDLIGMGKSGKPDLGYFFDDHVRFMDAFIEALGLEEVVLVIHDWGSALGFHWAKRNPERVKGIAFMEFIRPIPTWDEWPEFARETFQAFRTTDVGRKLIIDQNVFIEGTLPMGVVRPLTEVEMDHYREPFLNPEDREPLWRFPNELPIAGEPANIVALVEEYMDWLHQSPVPKLLFWGTPGVLIPPAEAARLAKSLPNCKAVDIGPGLNLLQEDNPDLIGSEIARWLSTLEISGGSGGSGGGGSGGMVFTLEDFVGDWEQTAAYNLDQVLEQGGVSSLLQNLAVSVTPIQRIVRSGENALKIDIHVIIPYEGLSADQMAQIEEVFKVVYPVDDHHFKVILPYGTLVIDGVTPNMLNYFGRPYEGIAVFDGKKITVTGTLWNGNKIIDERLITPDGSMLFRVTINSGSGHHHHHH
# B7: M2F+D53G+K140E: triple mutant reporter, best candidate protein (protein)
# chain: MFHYVDVGPRDGTPVLFLHGNPTSSYVWRNIIPHVAPTHRCIAPDLIGMGKSGKPDLGYFFDDHVRFMDAFIEALGLEEVVLVIHDWGSALGFHWAKRNPERVKGIAFMEFIRPIPTWDEWPEFARETFQAFRTTDVGRELIIDQNVFIEGTLPMGVVRPLTEVEMDHYREPFLNPVDREPLWRFPNELPIAGEPANIVALVEEYMDWLHQSPVPKLLFWGTPGVLIPPAEAARLAKSLPNCKAVDIGPGLNLLQEDNPDLIGSEIARWLSTLEISGGSGGSGGGGSGGMVFTLEDFVGDWEQTAAYNLDQVLEQGGVSSLLQNLAVSVTPIQRIVRSGENALKIDIHVIIPYEGLSADQMAQIEEVFKVVYPVDDHHFKVILPYGTLVIDGVTPNMLNYFGRPYEGIAVFDGKKITVTGTLWNGNKIIDERLITPDGSMLFRVTINSGSGHHHHHH
# B8: M2F+K140E: reporter variant of FIG. 54 and 58 (protein)
# chain: MFHYVDVGPRDGTPVLFLHGNPTSSYVWRNIIPHVAPTHRCIAPDLIGMGKSDKPDLGYFFDDHVRFMDAFIEALGLEEVVLVIHDWGSALGFHWAKRNPERVKGIAFMEFIRPIPTWDEWPEFARETFQAFRTTDVGRELIIDQNVFIEGTLPMGVVRPLTEVEMDHYREPFLNPVDREPLWRFPNELPIAGEPANIVALVEEYMDWLHQSPVPKLLFWGTPGVLIPPAEAARLAKSLPNCKAVDIGPGLNLLQEDNPDLIGSEIARWLSTLEISGGSGGSGGGGSGGMVFTLEDFVGDWEQTAAYNLDQVLEQGGVSSLLQNLAVSVTPIQRIVRSGENALKIDIHVIIPYEGLSADQMAQIEEVFKVVYPVDDHHFKVILPYGTLVIDGVTPNMLNYFGRPYEGIAVFDGKKITVTGTLWNGNKIIDERLITPDGSMLFRVTINSGSGHHHHHH
# How the values were obtained:
# [1] = tested on: synthetic HaloTag[3-19] peptide; assay: Stabilization of activity of LgHT-LgBiT variants by synthetic peptides in E. coli lysates; format: biochemical; conditions: 10 micromolar or more synthetic peptide, 10 minutes at temperature, 50 nM JF646 HaloTag ligand
# [2] = 10 nM protein, 125 micromolar HaloTag[3-19] synthetic peptide, 10 minutes, 2.5 nM TMR HaloTag ligand
# DualTag peptide = assay: Dissociation kinetics after complementation with synthetic peptide (dilution, luminescence); conditions: 100 nM protein, 200 nM peptide, diluted to 1 pM, furimazine
# Experimental: After preincubation with peptide, samples were diluted to 1 pM in either buffer alone or buffer 100 nM Tag peptide. At various time points, samples were transferred into luminescent substrate (Furimazine) to monitor dissociation of the complex.
# [3] = Labeling kinetics of LgHT-LgBiT variants with TMR HaloTag ligand in E. coli lysates (fluorescence polarization); format: biochemical; conditions: 200 micromolar HaloTag[3-19] synthetic peptide, 10 nM TMR HaloTag ligand, versus M2F control
# [4] = Labeling kinetics with various HaloTag ligands (fluorescence polarization); format: biochemical; conditions: proteins at 10 nM, ligand at 2.5 nM, Tris-buffered saline+0.01% CHAPS
# Experimental: (§1) FIG. 132. Labeling kinetics of HaloTag7 and HaloTag[22-297](M2F+D53G+K140E)-12×Gly/Ser-LgBiT-3×Gly/Ser-6×His with HaloTag ligand JF549. Fluorescence polarization was monitored over time to observe labeling kinetics of JF549 HaloTag ligand by HaloTag standard protein or HaloTag[22-297](M2F+D53G+K140E)-12×Gly/Ser-LgBiT-3×Gly/Ser-6×His. The experiment was completed in Tris-buffered saline+0.01% CHAPS with proteins at 10 nM and ligand at 2.5 nM.
# as §1, with “133.” for “132.”, “JF503.” for “JF549.”, “JF503” for “JF549”
# as §1, with “134.” for “132.”, “JFX554.” for “JF549.”, “JFX554” for “JF549”
# as §1, with “135.” for “132.”, “Oregon Green.” for “JF549.”, “Oregon Green” for “JF549”
# FIG. 136. Labeling kinetics of HaloTag7 and HaloTag[22-297](M2F+D53G+K140E)-12×Gly/Ser-LgBiT-3×Gly/Ser-6×His with a FAM HaloTag ligand. Fluorescence polarization was monitored over time to observe labeling kinetics of FAM HaloTag ligand by HaloTag standard protein or HaloTag[22-297](M2F+D53G+K140E)-12×Gly/Ser-LgBiT-3×Gly/Ser-6×His. The experiment was completed in Tris-buffered saline+0.01% CHAPS with proteins at 10 nM and ligand at 2.5 nM.
molecule,measurement,setting,value
B1,Optimal temperature of peptide stabilization versus the non-peptide condition,[1],~35 °C
B2,Optimal temperature of peptide stabilization versus the non-peptide condition,[1],~40 °C
B3,Loss of activity at 37° C. temperature challenge,[2],loses less than half of its activity
B4,Optimal temperature of peptide stabilization versus the non-peptide condition,[1],~35 °C
B5,Dissociation from the DualTag peptide,DualTag peptide,faster dissociation
B6,"Labeling with TMR HaloTag ligand, response to synthetic peptide complementation",[3],faster ligand binding and labeling
B7,"Labeling with TMR HaloTag ligand, response to synthetic peptide complementation",[3],best dynamic range of all combinations tested
same,Function with FAM HaloTag ligand,[4],functional
same,Function with JF503 HaloTag ligand,[4],functional
same,Function with JF549 HaloTag ligand,[4],functional
same,Function with JFX554 HaloTag ligand,[4],functional
same,Function with Oregon Green HaloTag ligand,[4],functional
B8,"Labeling with TMR HaloTag ligand, response to synthetic peptide complementation",[3],better fold response to complementation with the peptide
